Measured values from the nanobody polyreactivity screen of Harvey et al. (2022).

Assay: yeast display, Sf9 membrane polyspecificity reagent, FACS + sequencing; frameworks hold sequencing errors
How it was run: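 Sorting gates, low and high (top ~1%), were placed on anti-HA fluorescence to track expression and on streptavidin fluorescence to track reagent binding. A clone's polyreactivity label is taken from the gate it came out of. The reagent was 10% biotinylated, detergent-solubilized Sf9 membrane, applied for 1 hour at 4 °C to galactose-induced yeast display cells.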

## QVQLVESGGGLVQAGGSLRLSCAASGSIFKYYAMGWYRQAPGKERELVAAITWSGGRTNYADSVKGRFTISRDNAKNTVYLQMNSLKPEDTAVYYCNKAYPGLERWYRGLYYWGQGTQVTVSS
  polyreactivity (PSR sort gate): high polyreactivity

## QVQLVESGGGLVQAGGSLRLSCAASGSIFKYYAMGWYRQAPGKERELVASITSGGSTNYADSVKGRFTISRDNAKNTVYLQMNSLKPEDTAVYYCAADGVRVPRREYDYWGQGTQVTVSS
  polyreactivity (PSR sort gate): low polyreactivity

## QVQLVESGGGLVQAGGSLRLSCAASGSIFKYYVMGWYRQAPGKERELVAAISSGGGSTYYADSVKGRFTISRDNAKNTVYLQMNSLKPEDTAVYYCNKKYRSRWQGPFDYWGQGTQVTVSS
  polyreactivity (PSR sort gate): high polyreactivity

## QVQLVESGGGLVQAGGSLRLSCAASGSIFLAKAMGWYRQAPGKERELVAAINYADSVKGRFTISRDNAKNTVYLQMNSLKPEDTAVYYCYSKYDYWGQGTQVTVSS
  polyreactivity (PSR sort gate): low polyreactivity

## QVQLVESGGGLVQAGGSLRLSCAASGSIFLANAMGWYRQAPGKERELVAAINYADSVKGRFTISRDNAKNTVYLQMNSLKPEDTAVYYCYSKYDYWGQGTQVTVSS
  polyreactivity (PSR sort gate): low polyreactivity

## QVQLVESGGGLVQAGGSLRLSCAASGSIFLAYAMGWYRQAPGKERELVATISSGGSTNYADSVKGRFTISRDNAKNTVYLQMNSLKPEDTAVYYCIADYSIPGYYWPYDYWGQGTQVTVSS
  polyreactivity (PSR sort gate): low polyreactivity

## QVQLVESGGGLVQAGGSLRLSCAASGSIFLDYAMGWYRQAPGKERELVAGITISGGSTYYADSVKGRFTISRDNAKNTVYLQMNRLKPEDTAVYYCSKVAPRSSSSQEYYYWGQGTQVTVSS
  polyreactivity (PSR sort gate): low polyreactivity

## QVQLVESGGGLVQAGGSLRLSCAASGSIFLDYAMGWYRQAPGKERELVAGITISGGSTYYAVSVKGRFTISRDNAKNTVYLQMYSLNREDTAVYYCAKVAPRSSSSQEYYYWGQGTQVTVSS
  polyreactivity (PSR sort gate): low polyreactivity

## QVQLVESGGGLVQAGGSLRLSCAASGSIFLFYALGWSRQAPGKERELVATINWSGCTTYYADSVKGRFTISRDNAKNTVYFQMNSLKPEDNAFYYCAAYSVYGRYGRTFYYWGQGTQVTVSS
  polyreactivity (PSR sort gate): high polyreactivity

## QVQLVESGGGLVQAGGSLRLSCAASGSIFLGNAMGWYRQAPGKERELVAAISSITGRTYYAESVKGRFTISRDNAKNTVYLQMNSLKPEDTAVYYCNKVKRSFIVKTDDYWGQGTQVTVSS
  polyreactivity (PSR sort gate): high polyreactivity

## QVQLVESGGGLVQAGGSLRLSCAASGSIFLHNAMGWYRQAPGKERELVAAISGTGGRTYYADSVKGRFTISRDNAKNTVYLQMNSLKPEDTAVYYCAKTLRDPYRYDYWGQGTQVTVSS
  polyreactivity (PSR sort gate): high polyreactivity

## QVQLVESGGGLVQAGGSLRLSCAASGSIFLIYAMGGYRPAPGKERELVAGINWSGSRTYYADSVKGRFTISRDNAKNTVYLQMNSLKPEDTAVYYCAARVRRPLYSAYDSWGQGTQVTVSS
  polyreactivity (PSR sort gate): low polyreactivity

## QVQLVESGGGLVQAGGSLRLSCAASGSIFLKYAMGWYRQAPGKERELVATISRGGSTNYADSVKGRFTISRDNAKNTVYLQMNSLKPEDTAVYYCAAKYGRPYGTYGYKSLLVGDMYYWGQGTQVTVSS
  polyreactivity (PSR sort gate): high polyreactivity

## QVQLVESGGGLVQAGGSLRLSCAASGSIFLLYAMGWYRQAPGKERELVAAISLSTGNTYYADSVKGRFTISRDNAKNTVYLQMNSLKPEDTAVYYCAAEDYWSAYYWGQGTQVTVSS
  polyreactivity (PSR sort gate): high polyreactivity

## QVQLVESGGGLVQAGGSLRLSCAASGSIFLPNAMGWYRQAPGKERELVARITSTGSTNYADSVKGRFTISRDNAKNTVYLQMNSLKPEDTAVYYCAADYYPFYVKREQAYPDIPYDSWGQGTQVTVSS
  polyreactivity (PSR sort gate): low polyreactivity

## QVQLVESGGGLVQAGGSLRLSCAASGSIFLPYAMGWYRQAPGKEREFVAAIRWSTGRTFYADSVKGRVTISRDNAKNTVYLQMNSLKPEDTAVYYCAAKYYDSWYTYRYDYWGQGTQVTVSS
  polyreactivity (PSR sort gate): high polyreactivity

## QVQLVESGGGLVQAGGSLRLSCAASGSIFLPYAMGWYRQAPGKERELVAAITWGGDSTYADSVKGRFTISRDNAKNTVYLQMNSLKPEDTAVYYCAAGAGFESDYWGQGTQVTVSS
  polyreactivity (PSR sort gate): low polyreactivity

## QVQLVESGGGLVQAGGSLRLSCAASGSIFLRIAMGWYRQAPGKERELVARIRGGGSTYYADSVKGRFTISRDNAKNTVYLQMNSLKPEDTAVYYCAKDYYKYADGYDYWGQGTQVTVSS
  polyreactivity (PSR sort gate): high polyreactivity

## QVQLVESGGGLVQAGGSLRLSCAASGSIFLRYAMGWYRQAPGKERELVAAISGRGGSTYYADSVKGRFTISRDNAKNTVYLQMNSLKPEDTAVYYCAAYRGRSLEYDYWGQGTQVTVSS
  polyreactivity (PSR sort gate): high polyreactivity

## QVQLVESGGGLVQAGGSLRLSCAASGSIFLRYTMGWYRQAPGKETEFVAAITWTADSTYYADSVKGRFTISRDNAKNTVYLQMNSLKPEDTAVYYCAASYSTIWTLYYYWGQGTQVTVSS
  polyreactivity (PSR sort gate): low polyreactivity

## QVQLVESGGGLVQAGGSLRLSCAASGSIFLSYNMGRYRQAPGKERELVAAITSGGSTKYADSVKGRFTISRDNAKNTVYLQMNSLKPEDTAVYYCNATPYSRLGYWGQGTQVTVSS
  polyreactivity (PSR sort gate): high polyreactivity

## QVQLVESGGGLVQAGGSLRLSCAASGSIFLVNALGWYRQAPGKERELVAAISWSGGSTYYAESVKGRFTISRDNAKNTVYLQMKSLKPEDTAVYYCAADWFAANYYVNTVSALDYWGLGTQVTVSS
  polyreactivity (PSR sort gate): low polyreactivity

## QVQLVESGGGLVQAGGSLRLSCAASGSIFLVYAMGWYRQAPGKERELVAAISQRVGRTYYADSVKGRFTISRDNAKNTVYLQMNSLKPEDTAVYYCNARVYDPTRGFNYWGQGTQVTVSS
  polyreactivity (PSR sort gate): high polyreactivity

## QVQLVESGGGLVQAGGSLRLSCAASGSIFLVYAMGWYRQAPGKERELVAVISRGGITNYADSVKGRFTISGDNAKNTVYLQMNSLKPEDTAVYYCAAEPRPSWSRYTYGYWGQGTQVTVSS
  polyreactivity (PSR sort gate): low polyreactivity

## QVQLVESGGGLVQAGGSLRLSCAASGSIFLYNAMGWYRQAPGKERELVATITSSTGSTYYADSVKGRFTISRDNAKNTVYLQMNSLKPEDTAVYYCATRESRRQRRYYYWGQGTQVTLSS
  polyreactivity (PSR sort gate): high polyreactivity

## QVQLVESGGGLVQAGGSLRLSCAASGSIFLYYAMGWYRQAPGKERELVAGIRRGGRTNYADSVKGRFTISRDNAKNTVYLQMNSLKPEDTAVYYCAKGGYWGQGTQVTVSS
  polyreactivity (PSR sort gate): high polyreactivity

## QVQLVESGGGLVQAGGSLRLSCAASGSIFLYYAMGWYRQAPGKERELVATITKGGGSTYYADSVKGRFTISRDNAKNTVYLQMNSLKPEDTAVYYCAADAAHSEYDYWGQGTLVTVSS
  polyreactivity (PSR sort gate): high polyreactivity

## QVQLVESGGGLVQAGGSLRLSCAASGSIFNANAMGWYRQAPGKEWELVARITRGGRTNYADSVKGRFTISRDNAKNTVYLQMNSLKPEDTAVYYCAAVYYVGFPHKYDYWGQGTQVNVSS
  polyreactivity (PSR sort gate): low polyreactivity

## QVQLVESGGGLVQAGGSLRLSCAASGSIFNAYVMGWYRQAPGKERELVAAISRSGGRTYYADSVKGRFTISRDNAKNTVYLQMNSLKPEDNAVYYCAADYGGPYGQLDYWGQGTQVTVSS
  polyreactivity (PSR sort gate): high polyreactivity

## QVQLVESGGGLVQAGGSLRLSCAASGSIFNGNAMGWYRQAPGKERELVAAISRNGGSTYYADSVKGRFTISRDNAKNTVYLQMNSLKPEDTAVYYCAVRKRPHGYLAFGYWGQGTQVTVSS
  polyreactivity (PSR sort gate): low polyreactivity

## QVQLVESGGGLVQAGGSLRLSCAASGSIFNGNAMGWYRQAPGKERELVAAISRNRGSTYYADSVKGRFTISRDNAKNTVYLQMNSLKPEDTAVYYCPTDLTVYYSYYWMYWGQGTQVTVSS
  polyreactivity (PSR sort gate): low polyreactivity

## QVQLVESGGGLVQAGGSLRLSCAASGSIFNGNAMGWYRQAPGKERELVAAITRRGGRTYYADSVKGRFTISRDNAKNTVYLQMNSLKPDDTAVYYCNAYSKAVQGGYDYWGQGTQVTVSS
  polyreactivity (PSR sort gate): high polyreactivity

## QVQLVESGGGLVQAGGSLRLSCAASGSIFNGYVMGWYRQAPGKERELVAAISGSGGRTYYADSVKGRFTISRDNAKNTVYLQMNSLKPEDTAVYYCAAYPDLRDSRRIRYGYNYWGQGTQVTVSS
  polyreactivity (PSR sort gate): high polyreactivity

## QVQLVESGGGLVQAGGSLRLSCAASGSIFNGYVMGWYRQAPGKERELVASINRGGTTNYADSVKGRFTISRDNAKNTVYLQMNSLKPEDTAVYYCAVDDDANSLGGYYVLFDYWGQGTQVTVSS
  polyreactivity (PSR sort gate): low polyreactivity

## QVQLVESGGGLVQAGGSLRLSCAASGSIFNHYAMGWYRQAPGKERELVATITDGGSTYYADSVKGRFTISRDNAKNTVYLQMNSLKPEDTAVYYCATDRRRFWVIYYYWGQGTQVTVSS
  polyreactivity (PSR sort gate): low polyreactivity

## QVQLVESGGGLVQAGGSLRLSCAASGSIFNINAMGWYRHAPGKERELVAVITSRDGRTYYADSVKGRFTISRDNAKNTVYLQMNSLKPEDTAVYYCAADVVNRHYYFWGQGTQVTVSS
  polyreactivity (PSR sort gate): low polyreactivity

## QVQLVESGGGLVQAGGSLRLSCAASGSIFNIYDMGWSRQAPGKERELVAGISWDGDSTYYADSVKGRFTISRDNAKNTVYLQMNSLKPEDTAVEYCAAVYTRAHISYYYWGQGTQVTVSS
  polyreactivity (PSR sort gate): high polyreactivity

## QVQLVESGGGLVQAGGSLRLSCAASGSIFNKYAMGWYRQAPGKERELVAAISVSGTRTYYADSVKGRFTISRDTAKNTVYLQMNSLKPEDTAVYYCATKFFRTAYEYWGQGTQVTVSS
  polyreactivity (PSR sort gate): high polyreactivity

## QVQLVESGGGLVQAGGSLRLSCAASGSIFNLYAMGWYRQAPGKERELVAGIRWSGGRTYYADSVKGRFTISRDNAKYTVYLQMNSLKPEDTAVYYCAAEYRSWRYTGYSYYYWGQGTQVTVSS
  polyreactivity (PSR sort gate): high polyreactivity

## QVQLVESGGGLVQAGGSLRLSCAASGSIFNNNAMGWYRQAPGKERELVADITASGGNTNYADSVKGRFTISRDNAKNTVYLQMNSLKPEDTAVYYCNAGGFYGTLFFPLDIYYVGYDYWGQGTQVTVSS
  polyreactivity (PSR sort gate): low polyreactivity

## QVQLVESGGGLVQAGGSLRLSCAASGSIFNPNAMGWYRQAPGKERELVAAISYSDATTYYADSVKGRFTISRDNAKNTVYLQMNSLKPEDTAVYYCAAEPAAGDYDYWGQGTQVTVSS
  polyreactivity (PSR sort gate): high polyreactivity

## QVQLVESGGGLVQAGGSLRLSCAASGSIFNQYPMGWYRQAPGKERELVAAISSGSTYYADSVKGRFIISRDNAKITVYLQMNSMKAEDTAVNNCAKDRHSPYWAMDYWGQGTQVTVSS
  polyreactivity (PSR sort gate): high polyreactivity

## QVQLVESGGGLVQAGGSLRLSCAASGSIFNRYAMGLYRQAPVKERELVAAISSTGSTYYADSVKGRFTISRDNAKNTVYLQMNSLKPEDTAVYYCATDDPLSQINEQGMDYWGQGTQVTVSS
  polyreactivity (PSR sort gate): low polyreactivity
